According to patent US20090155176A1:
pIC50: −log10 of the molar value.

Target: LFA-1 (lymphocyte function-associated antigen-1), purified heterodimer captured on ELISA plates (human) (UniProt P20701)
Assay: competition ELISA (LFA-1/ICAM-1-Ig)
Conditions: ligand

Sequence of sICAM-1 (soluble ICAM-1) (P05362 28-480): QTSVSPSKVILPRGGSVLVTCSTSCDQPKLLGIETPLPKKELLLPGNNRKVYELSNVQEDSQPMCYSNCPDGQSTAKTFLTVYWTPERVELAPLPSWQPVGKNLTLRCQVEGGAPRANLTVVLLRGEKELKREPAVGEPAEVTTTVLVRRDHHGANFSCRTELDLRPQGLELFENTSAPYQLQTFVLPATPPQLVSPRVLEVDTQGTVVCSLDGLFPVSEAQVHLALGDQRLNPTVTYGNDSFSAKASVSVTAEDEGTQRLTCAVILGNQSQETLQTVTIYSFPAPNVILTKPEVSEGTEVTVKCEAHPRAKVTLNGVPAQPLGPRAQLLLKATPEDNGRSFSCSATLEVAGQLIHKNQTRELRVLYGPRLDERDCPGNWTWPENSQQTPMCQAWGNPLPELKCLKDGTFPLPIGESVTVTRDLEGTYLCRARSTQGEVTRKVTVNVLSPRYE
Sequence of LFA-1 (lymphocyte function-associated antigen-1), purified heterodimer captured on ELISA plates (human) (P20701 26-1170, chain 1 of 2): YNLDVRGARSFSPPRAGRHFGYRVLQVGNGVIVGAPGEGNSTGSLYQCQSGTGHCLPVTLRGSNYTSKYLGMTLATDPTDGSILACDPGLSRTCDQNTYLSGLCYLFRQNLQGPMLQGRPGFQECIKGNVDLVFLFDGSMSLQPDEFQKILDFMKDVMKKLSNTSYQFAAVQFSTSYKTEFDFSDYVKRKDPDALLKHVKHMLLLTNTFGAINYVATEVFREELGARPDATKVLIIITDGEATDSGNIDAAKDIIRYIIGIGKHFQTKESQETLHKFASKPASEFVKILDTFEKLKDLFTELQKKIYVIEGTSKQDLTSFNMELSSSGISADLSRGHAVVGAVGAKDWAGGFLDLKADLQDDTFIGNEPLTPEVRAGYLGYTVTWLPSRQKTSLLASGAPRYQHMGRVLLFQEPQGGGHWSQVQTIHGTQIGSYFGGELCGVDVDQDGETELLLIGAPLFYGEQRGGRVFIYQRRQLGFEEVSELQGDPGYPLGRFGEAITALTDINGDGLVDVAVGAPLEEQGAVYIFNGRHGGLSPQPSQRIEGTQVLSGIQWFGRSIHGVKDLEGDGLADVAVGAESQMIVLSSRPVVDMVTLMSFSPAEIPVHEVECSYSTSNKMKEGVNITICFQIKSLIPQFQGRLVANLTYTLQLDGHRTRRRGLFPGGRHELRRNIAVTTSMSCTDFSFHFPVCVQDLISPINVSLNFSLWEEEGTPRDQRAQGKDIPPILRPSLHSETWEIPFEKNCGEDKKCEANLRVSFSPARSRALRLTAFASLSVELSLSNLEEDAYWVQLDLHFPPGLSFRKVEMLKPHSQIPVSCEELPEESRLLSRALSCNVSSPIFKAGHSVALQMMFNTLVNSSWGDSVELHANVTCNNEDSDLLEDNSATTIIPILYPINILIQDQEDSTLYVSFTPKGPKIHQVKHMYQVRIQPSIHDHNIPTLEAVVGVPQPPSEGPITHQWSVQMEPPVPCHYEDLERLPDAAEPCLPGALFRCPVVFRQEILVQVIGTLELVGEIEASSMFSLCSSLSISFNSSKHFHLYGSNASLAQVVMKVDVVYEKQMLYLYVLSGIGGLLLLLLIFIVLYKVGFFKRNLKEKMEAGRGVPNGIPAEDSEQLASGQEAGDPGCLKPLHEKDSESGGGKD
Sequence of LFA-1 (lymphocyte function-associated antigen-1), purified heterodimer captured on ELISA plates (human) (P05107 23-769, chain 2 of 2, further chain): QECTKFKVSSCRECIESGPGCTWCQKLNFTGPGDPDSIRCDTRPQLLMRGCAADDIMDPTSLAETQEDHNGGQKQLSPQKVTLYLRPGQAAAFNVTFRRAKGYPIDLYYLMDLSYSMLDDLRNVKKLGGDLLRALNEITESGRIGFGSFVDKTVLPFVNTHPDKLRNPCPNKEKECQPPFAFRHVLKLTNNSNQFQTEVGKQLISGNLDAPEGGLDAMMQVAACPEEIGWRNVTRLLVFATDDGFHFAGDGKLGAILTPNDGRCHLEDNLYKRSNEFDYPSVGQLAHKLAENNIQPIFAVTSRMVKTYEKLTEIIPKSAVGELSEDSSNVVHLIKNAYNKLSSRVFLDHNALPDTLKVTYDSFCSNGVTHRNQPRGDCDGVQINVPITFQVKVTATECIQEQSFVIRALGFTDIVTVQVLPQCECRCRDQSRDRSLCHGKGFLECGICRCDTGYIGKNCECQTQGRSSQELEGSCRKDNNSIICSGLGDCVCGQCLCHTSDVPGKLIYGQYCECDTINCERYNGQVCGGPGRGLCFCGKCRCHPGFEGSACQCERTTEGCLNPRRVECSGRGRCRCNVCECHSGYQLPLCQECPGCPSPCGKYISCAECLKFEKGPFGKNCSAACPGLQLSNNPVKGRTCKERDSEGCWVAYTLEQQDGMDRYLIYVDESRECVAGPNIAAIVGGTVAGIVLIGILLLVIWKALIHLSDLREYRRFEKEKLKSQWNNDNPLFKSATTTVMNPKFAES

sICAM-1 (soluble ICAM-1) (from UniProt P05362 28-480)
pIC50: 6.54
